Legend:
Assay in all cases: cell-based or functional assay
[1] = biological target: Human ANG-2 (huAng2) (human) (UniProt O15123)
cyno Ang2 (cyno) = biological target: cyno Ang2 (cyno)
mouse Ang2 (mouse) = mouse Ang2 (mouse) (UniProt O35608)
mouse Ang2 (mouse), sequence (O35608 19-496 limits assumed): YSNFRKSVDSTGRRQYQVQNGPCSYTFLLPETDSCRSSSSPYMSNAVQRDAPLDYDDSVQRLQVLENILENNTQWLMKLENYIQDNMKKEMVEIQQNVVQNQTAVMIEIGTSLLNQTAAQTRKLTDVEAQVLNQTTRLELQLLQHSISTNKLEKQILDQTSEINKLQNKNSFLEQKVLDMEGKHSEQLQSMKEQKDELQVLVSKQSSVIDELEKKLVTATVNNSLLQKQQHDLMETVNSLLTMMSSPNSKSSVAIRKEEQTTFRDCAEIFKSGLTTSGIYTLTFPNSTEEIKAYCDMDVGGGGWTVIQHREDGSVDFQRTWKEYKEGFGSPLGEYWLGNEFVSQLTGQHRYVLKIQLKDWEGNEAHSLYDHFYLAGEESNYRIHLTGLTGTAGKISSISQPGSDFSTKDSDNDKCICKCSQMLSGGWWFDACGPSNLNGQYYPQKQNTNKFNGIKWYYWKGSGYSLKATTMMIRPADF

Human ANG-2 (huAng2) (human), sequence (O15123 19-496 limits assumed): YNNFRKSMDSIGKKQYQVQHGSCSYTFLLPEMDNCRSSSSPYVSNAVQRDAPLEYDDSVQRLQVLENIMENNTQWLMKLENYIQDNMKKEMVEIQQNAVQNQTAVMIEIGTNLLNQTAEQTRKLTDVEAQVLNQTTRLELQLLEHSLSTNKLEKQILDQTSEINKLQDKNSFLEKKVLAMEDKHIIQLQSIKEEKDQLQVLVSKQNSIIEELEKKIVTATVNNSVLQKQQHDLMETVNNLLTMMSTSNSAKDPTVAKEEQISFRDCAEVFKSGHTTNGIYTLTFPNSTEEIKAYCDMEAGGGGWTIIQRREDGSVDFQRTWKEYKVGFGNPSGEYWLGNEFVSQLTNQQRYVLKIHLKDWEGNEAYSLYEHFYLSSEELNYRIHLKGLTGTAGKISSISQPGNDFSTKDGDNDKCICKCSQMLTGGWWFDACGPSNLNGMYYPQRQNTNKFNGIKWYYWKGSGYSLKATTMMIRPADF

## MEDI3617 (antibody)
[1]
  Hu pTie2 EC50 (nM), Hek293-Tie2 cells: 2.65 nM
Cyno Ang2 (cyno)
  Cyno pTie2 EC50 (nM): 33.2 nM
Mouse Ang2 (mouse)
  Mu pTie2 EC50 (nM): 137 nM
